Consider one molecule from patent US20040152160A1 (UNIVERSITY OF SOUTH FLORIDA, published 2004).

This experiment has as its target α7-2-nAChR (homomeric receptor of the rat α7-2 splice variant subunit expressed in Xenopus oocytes) (rat, UniProt Q05941 28-502). Put plainly: summary statement; no assay given at this place.

B1: α-bungarotoxin (ligand)
chain: IVCHTTATSPISAVTCPPGENLCYRKMWCDAFCSSRGKVVELGCAATCPSKKPYEEVTCCSTDKCNPHPKQRPG
B1: the binding result was “binds”.
